The sequences below were run on Escherichia coli TOP10 (assay: shrunken log2 fold change of peptide-encoding DNA abundance (4.5 h post-induction vs induction); higher = less antimicrobial activity (less host growth inhibition)). Details: time post-induction: 4.5 h; library: site-saturation at positions 5, 18, 19, 20.
In the case of RRIRWRPPRLPRPRPRPFKYPRP, the “shrunken log2 fold change” value is reported as -0.00867.
For RRIRCRPPRLPRPRPRPPHLPRP, the “shrunken log2 fold change” value was 0.079.
In the case of RRIRVRPPRLPRPRPRPYEFPRP, the “shrunken log2 fold change” value is reported as 2.15.
In the case of RRIRYRPPRLPRPRPRPACHPRP, the “shrunken log2 fold change” value is reported as -0.453.
In the case of RRIRFRPPRLPRPRPRPMKIPRP, the “shrunken log2 fold change” value is reported as 0.25.
RRIRNRPPRLPRPRPRPYSLPRP was tested, and the “shrunken log2 fold change” value was -0.965.
In the case of RRIRLRPPRLPRPRPRPAVLPRP, the “shrunken log2 fold change” value is reported as -0.0831.
RRIRYRPPRLPRPRPRPITNPRP was tested, and the “shrunken log2 fold change” value was -0.544.
RRIRPRPPRLPRPRPRPWFTPRP was tested, and the “shrunken log2 fold change” value was -0.0465.
With RRIRSRPPRLPRPRPRPLYFPRP the “shrunken log2 fold change” value was -0.682.
With RRIRYRPPRLPRPRPRPGDYPRP the “shrunken log2 fold change” value was 0.065.
RRIRFRPPRLPRPRPRPVRGPRP was tested, and the “shrunken log2 fold change” value was 0.576.
With RRIRERPPRLPRPRPRPMGKPRP the “shrunken log2 fold change” value was -0.01.
With RRIRDRPPRLPRPRPRPGHFPRP the “shrunken log2 fold change” value was 0.0123.
With RRIRLRPPRLPRPRPRPNVAPRP the “shrunken log2 fold change” value was 0.0405.
RRIRMRPPRLPRPRPRPVIKPRP was tested, and the “shrunken log2 fold change” value was -0.0254.
With RRIRDRPPRLPRPRPRPHVAPRP the “shrunken log2 fold change” value was -0.0272.
For RRIRIRPPRLPRPRPRPKWWPRP, the “shrunken log2 fold change” value was 0.188.
With RRIRMRPPRLPRPRPRPQVDPRP the “shrunken log2 fold change” value was -0.00893.
RRIRHRPPRLPRPRPRPQYKPRP was tested, and the “shrunken log2 fold change” value was -0.252.
With RRIRLRPPRLPRPRPRPEAAPRP the “shrunken log2 fold change” value was 0.732.
RRIRWRPPRLPRPRPRPESPPRP was tested, and the “shrunken log2 fold change” value was 0.637.
RRIRWRPPRLPRPRPRPKQLPRP was tested, and the “shrunken log2 fold change” value was -0.0021.
RRIRSRPPRLPRPRPRPKNTPRP was tested, and the “shrunken log2 fold change” value was -0.356.
With RRIRLRPPRLPRPRPRPKVHPRP the “shrunken log2 fold change” value was -0.106.
In the case of RRIRGRPPRLPRPRPRPHSNPRP, the “shrunken log2 fold change” value is reported as 0.117.
In the case of RRIRNRPPRLPRPRPRPIMMPRP, the “shrunken log2 fold change” value is reported as -0.103.
With RRIRFRPPRLPRPRPRPGFGPRP the “shrunken log2 fold change” value was 0.337.
In the case of RRIRDRPPRLPRPRPRPVPFPRP, the “shrunken log2 fold change” value is reported as 2.99.
In the case of RRIRSRPPRLPRPRPRPYTNPRP, the “shrunken log2 fold change” value is reported as -1.46.
With RRIRNRPPRLPRPRPRPEKSPRP the “shrunken log2 fold change” value was 0.31.
RRIRDRPPRLPRPRPRPEESPRP was tested, and the “shrunken log2 fold change” value was 0.14.
RRIRYRPPRLPRPRPRPIGQPRP was tested, and the “shrunken log2 fold change” value was 0.013.
For RRIRPRPPRLPRPRPRPVTWPRP, the “shrunken log2 fold change” value was -0.0661.
For RRIRDRPPRLPRPRPRPLHKPRP, the “shrunken log2 fold change” value was 0.0824.
RRIRVRPPRLPRPRPRPMKEPRP was tested, and the “shrunken log2 fold change” value was -0.04.
RRIRPRPPRLPRPRPRPHWKPRP was tested, and the “shrunken log2 fold change” value was -0.131.
For RRIRTRPPRLPRPRPRPGQLPRP, the “shrunken log2 fold change” value was 0.226.
With RRIRMRPPRLPRPRPRPEHIPRP the “shrunken log2 fold change” value was -0.0225.
For RRIRMRPPRLPRPRPRPNDSPRP, the “shrunken log2 fold change” value was -0.0147.
In the case of RRIRYRPPRLPRPRPRPKAAPRP, the “shrunken log2 fold change” value is reported as 0.067.
For RRIRCRPPRLPRPRPRPSFGPRP, the “shrunken log2 fold change” value was -0.496.
With RRIRSRPPRLPRPRPRPCSYPRP the “shrunken log2 fold change” value was -0.379.
For RRIRLRPPRLPRPRPRPRPSPRP, the “shrunken log2 fold change” value was 0.435.
RRIRKRPPRLPRPRPRPFKAPRP was tested, and the “shrunken log2 fold change” value was -0.111.
In the case of RRIRCRPPRLPRPRPRPCAEPRP, the “shrunken log2 fold change” value is reported as 0.0802.
With RRIRIRPPRLPRPRPRPAWGPRP the “shrunken log2 fold change” value was 0.0665.
With RRIRDRPPRLPRPRPRPGAAPRP the “shrunken log2 fold change” value was 1.09.
In the case of RRIRQRPPRLPRPRPRPFVFPRP, the “shrunken log2 fold change” value is reported as -0.273.
With RRIRIRPPRLPRPRPRPLRRPRP the “shrunken log2 fold change” value was 0.0866.
With RRIRWRPPRLPRPRPRPWKNPRP the “shrunken log2 fold change” value was 0.0346.
RRIRRRPPRLPRPRPRPFQHPRP was tested, and the “shrunken log2 fold change” value was -0.248.
With RRIRFRPPRLPRPRPRPQDEPRP the “shrunken log2 fold change” value was -0.0187.
With RRIRQRPPRLPRPRPRPWRCPRP the “shrunken log2 fold change” value was -0.149.
RRIRDRPPRLPRPRPRPNSAPRP was tested, and the “shrunken log2 fold change” value was -1.36.
For RRIRERPPRLPRPRPRPTYKPRP, the “shrunken log2 fold change” value was -0.579.
With RRIRVRPPRLPRPRPRPKNCPRP the “shrunken log2 fold change” value was -0.183.
For RRIRFRPPRLPRPRPRPETIPRP, the “shrunken log2 fold change” value was -0.103.
For RRIRWRPPRLPRPRPRPPAVPRP, the “shrunken log2 fold change” value was 0.698.
In the case of RRIRLRPPRLPRPRPRPPWQPRP, the “shrunken log2 fold change” value is reported as 0.594.
For RRIRLRPPRLPRPRPRPSKKPRP, the “shrunken log2 fold change” value was -0.0524.
RRIRSRPPRLPRPRPRPKRCPRP was tested, and the “shrunken log2 fold change” value was -0.0384.
With RRIRKRPPRLPRPRPRPYFSPRP the “shrunken log2 fold change” value was -0.178.
In the case of RRIRMRPPRLPRPRPRPCDQPRP, the “shrunken log2 fold change” value is reported as -0.134.
With RRIRFRPPRLPRPRPRPITEPRP the “shrunken log2 fold change” value was -0.0279.
For RRIRARPPRLPRPRPRPDHQPRP, the “shrunken log2 fold change” value was -0.0683.
In the case of RRIRSRPPRLPRPRPRPCGCPRP, the “shrunken log2 fold change” value is reported as -0.00437.
In the case of RRIRRRPPRLPRPRPRPRWTPRP, the “shrunken log2 fold change” value is reported as 0.453.
With RRIRQRPPRLPRPRPRPSFHPRP the “shrunken log2 fold change” value was -0.351.
With RRIRFRPPRLPRPRPRPFEKPRP the “shrunken log2 fold change” value was -0.0749.
RRIRSRPPRLPRPRPRPPRGPRP was tested, and the “shrunken log2 fold change” value was 0.638.
With RRIRERPPRLPRPRPRPRCQPRP the “shrunken log2 fold change” value was -0.0986.
In the case of RRIRARPPRLPRPRPRPTGAPRP, the “shrunken log2 fold change” value is reported as 0.906.
For RRIRYRPPRLPRPRPRPYAVPRP, the “shrunken log2 fold change” value was -0.85.
With RRIRWRPPRLPRPRPRPNMIPRP the “shrunken log2 fold change” value was -0.114.
RRIRSRPPRLPRPRPRPCALPRP was tested, and the “shrunken log2 fold change” value was -0.242.
With RRIRKRPPRLPRPRPRPPRFPRP the “shrunken log2 fold change” value was 0.733.
In the case of RRIRWRPPRLPRPRPRPTSKPRP, the “shrunken log2 fold change” value is reported as -0.0975.
In the case of RRIRTRPPRLPRPRPRPIGYPRP, the “shrunken log2 fold change” value is reported as -0.0183.
RRIRWRPPRLPRPRPRPGDSPRP was tested, and the “shrunken log2 fold change” value was -0.163.
For RRIRKRPPRLPRPRPRPNNQPRP, the “shrunken log2 fold change” value was -0.219.
With RRIRFRPPRLPRPRPRPAGSPRP the “shrunken log2 fold change” value was -0.139.
RRIRYRPPRLPRPRPRPCPTPRP was tested, and the “shrunken log2 fold change” value was -0.0225.
For RRIRERPPRLPRPRPRPTTNPRP, the “shrunken log2 fold change” value was -0.185.
With RRIRSRPPRLPRPRPRPINAPRP the “shrunken log2 fold change” value was -0.377.
In the case of RRIRERPPRLPRPRPRPVWWPRP, the “shrunken log2 fold change” value is reported as 0.149.
In the case of RRIRSRPPRLPRPRPRPMYHPRP, the “shrunken log2 fold change” value is reported as -0.762.
With RRIRARPPRLPRPRPRPFTWPRP the “shrunken log2 fold change” value was -0.193.
For RRIRRRPPRLPRPRPRPLIAPRP, the “shrunken log2 fold change” value was 0.294.
RRIRMRPPRLPRPRPRPWMKPRP was tested, and the “shrunken log2 fold change” value was -0.234.

— the supplement of paper PMC9112550, “Optimization of the antimicrobial peptide Bac7 by deep mutational scanning” (BMC Biology, 2022)
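Note: peptides expressed intracellularly from a pBAD plasmid library in pooled LB shake-flask culture, induced with 0.3% L-arabinose, DNA abundance read by NGS, three biological replicates, DESeq2 with apeglm shrinkage.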
